{
  "source": "patent US20250002610A1",
  "about": "(Genmab, published 2025)",
  "binders": {"B1": {"name": "BisG1-FAPα-FERL/DR4-FERR (bispecific antibody, human IgG1, kappa, lambda)", "heavy 1": "EVQLLESGGGLVQPGGSPRLSCEASGFTFSSYALSWVRQAPGKGLEWVSAISGSGGGRYYADSVKGRFTISRDNSKNTLFLQMNSLRAEDTAVYYCAKEGYSSSGTYWDHWGQGTLVTVSSASTKGPSVFPLAPSSKSTSGGTAALGCLVKDYFPEPVTVSWNSGALTSGVHTFPAVLQSSGLYSLSSVVTVPSSSLGTQTYICNVNHKPSNTKVDKRVEPKSCDKTHTCPPCPAPEFERGPSVFLFPPKPKDTLMISRTPEVTCVVVDVSHEDPEVKFNWYVDGVEVHNAKTKPREEQYNSTYRVVSVLTVLHQDWLNGKEYKCKVSNKALPAPIEKTISKAKGQPREPQVYTLPPSREEMTKNQVSLTCLVKGFYPSDIAVEWESNGQPENNYKTTPPVLDSDGSFLLYSKLTVDKSRWQQGNVFSCSVMHEALHNHYTQKSLSLSPG", "light 1": "AIQMTQSPSSVSASVGDRVTITCRASQGVSSWLAWYQQKPGRAPKLLIYVASTLQSGVPSRFSGSGSGTDFTLTINSLQPEDFATYYCQQANSFPPTFGQGTRLEMKRTVAAPSVFIFPPSDEQLKSGTASVVCLLNNFYPREAKVQWKVDNALQSGNSQESVTEQDSKDSTYSLSSTLTLSKADYEKHKVYACEVTHQGLSSPVTKSFNRGEC", "heavy 2": "QVQLQESGPGLVKPSGTLSLTCAVSGGSISSYSWWSWIRQPPGKGLEWIGELYHSGSTNYNPSLKSRVTISVDKSKNQFSLKLRSVTAADTAVYYCVRGVATIDYWGQGTLVTVSSASTKGPSVFPLAPSSKSTSGGTAALGCLVKDYFPEPVTVSWNSGALTSGVHTFPAVLQSSGLYSLSSVVTVPSSSLGTQTYICNVNHKPSNTKVDKRVEPKSCDKTHTCPPCPAPEFERGPSVFLFPPKPKDTLMISRTPEVTCVVVDVSHEDPEVKFNWYVDGVEVHNAKTKPREEQYNSTYRVVSVLTVLHQDWLNGKEYKCKVSNKALPAPIEKTISKAKGQPREPQVYTLPPSREEMTKNQVSLTCLVKGFYPSDIAVEWESNGQPENNYKTTPPVLDSDGSFFLYSRLTVDKSRWQQGNVFSCSVMHEALHNHYTQKSLSLSPG", "light 2": "QSALTQPPSASGSPGQSVTISCTGTSSDVGGYNFVSWYQQDPGKAPKLLIYEVTKRPSGVPDRFSGSKSGNTASLTVSGLQAEDEADYYCSSYAGSNNVMFGGGTKLTVLGQPKAAPSVTLFPPSSEELQANKATLVCLISDFYPGAVTVAWKADSSPVKAGVETTTPSKQSNNKYAASSYLSLTPEQWKSHRSYSCQVTHEGSTVEKTVAPTECS", "notes": "Human IgG1 bispecific made by controlled Fab-arm exchange of IgG1-FAPα-FERL and IgG1-DR4-FERR; monovalent for FAPα and for DR4; also called GEN1057"}},
  "key": {"[1]": {"target": "T1, human FAPα (Fibroblast activation protein alpha), cell surface expressed (human, UniProt Q12884 1-760)", "T1 construct": "Endogenous on human lung fibroblasts and CAFs", "T1 sequence": "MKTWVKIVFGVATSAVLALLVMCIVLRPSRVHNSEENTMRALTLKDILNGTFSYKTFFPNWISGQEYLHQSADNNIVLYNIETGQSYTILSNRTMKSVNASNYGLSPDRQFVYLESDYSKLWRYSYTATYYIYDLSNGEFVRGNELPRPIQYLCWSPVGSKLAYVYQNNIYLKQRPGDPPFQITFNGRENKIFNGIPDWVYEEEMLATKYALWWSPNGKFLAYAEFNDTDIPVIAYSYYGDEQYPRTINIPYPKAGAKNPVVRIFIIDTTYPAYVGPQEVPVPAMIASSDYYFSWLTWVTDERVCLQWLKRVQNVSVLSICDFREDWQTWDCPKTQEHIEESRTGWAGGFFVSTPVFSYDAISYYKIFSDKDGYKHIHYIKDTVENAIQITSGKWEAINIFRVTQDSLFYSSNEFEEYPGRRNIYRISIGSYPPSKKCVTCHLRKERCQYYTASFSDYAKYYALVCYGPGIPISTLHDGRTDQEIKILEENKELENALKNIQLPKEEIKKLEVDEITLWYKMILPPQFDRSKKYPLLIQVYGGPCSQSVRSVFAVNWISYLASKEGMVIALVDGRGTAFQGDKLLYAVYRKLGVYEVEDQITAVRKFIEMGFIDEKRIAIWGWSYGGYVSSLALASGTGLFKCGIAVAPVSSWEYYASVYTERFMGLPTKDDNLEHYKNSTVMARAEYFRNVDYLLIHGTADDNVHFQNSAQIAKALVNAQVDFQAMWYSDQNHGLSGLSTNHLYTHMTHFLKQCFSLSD", "test": "flow cytometry, human lung fibroblasts, n = 2", "description": "Binding of bispecific or monoclonal antibodies carrying the anti-FAPα arm derived from IgG1-FAPα-FERL (BisG1-FAPα-FERL/DR4-FERR, BisG1-FAPα-FERL/b12-FERR, and IgG1-FAPα-FERL) to cell surface expressed human FAPα was analyzed by flow cytometry using human lung fibroblasts and CAFs, which endogenously express FAPα. BisG1-b12-FERL/b12-FERR was used as negative control.\nHuman lung fibroblasts and CAFs (50,000 cells/well) were seeded in 96-Well round bottom plates (Greiner Bio-one, Cat #650101). Antibody dilutions were prepared using fluorescence-activated cell sorting (FACS) buffer, consisting of phosphate buffer saline (PBS, Lonza, Cat #BE17-517Q)+1% Bovine Serum Albumin (BSA, Roche, Cat #10735086001)+0.02% Sodium Azide (Bio-World, Cat #41920044-3). Plates were centrifuged, supernatant was removed, cells were resuspended in 50 μL of human Fc Block (BD, Cat #564220, diluted 1:100 in FACS buffer) and 50 μL of viability stain TO-PRO-3 Iodide (Thermo Fisher, Cat #T3605, diluted 1: 25,000 in FACS buffer), and incubated for 15 min at 4° C. Plates were washed three times with FACS buffer. Plates were centrifuged, supernatant was removed, cells were resuspended in 50 μL of antibody dilutions (concentration range 90-0.0005 μg/mL, three-fold dilution steps using FACS buffer) of BisG1-FAPα-FERL/DR4-FERR, BisG1-FAPα-FERL/b12-FERR, BisG1-b12-FERL/b12-FERR (top six concentrations only for CAFs culture) or IgG1-FAPα-FERL (top four concentrations only for CAFs culture) and incubated for 30 min at 4° C. Cells were washed three times with FACS buffer and resuspended in 50 μL of Fluorescein isothiocyanate (FITC)-labeled polyclonal antibody goat anti-mouse IgG1 (Jackson Immuno Research, Cat #109-096-097, diluted 1:100 in FACS buffer). […] Antibody binding to viable cells (TO-PRO-3 negative) was analyzed by flow cytometry on a FACSCelesta™ (BD biosciences) and data were processed using FlowJo_v10.8.1 (FlowJo LLC). Geomean fluorescence intensity, gMFI, was determined and visualized using GraphPad Prism."}, "[2]": {"target": "T2, human DR4 (Death Receptor 4), cell surface expressed on human tumor cell lines (human, UniProt O00220 24-468)", "T2 construct": "also called TNFRSF10A; TRAIL-R1", "T2 sequence": "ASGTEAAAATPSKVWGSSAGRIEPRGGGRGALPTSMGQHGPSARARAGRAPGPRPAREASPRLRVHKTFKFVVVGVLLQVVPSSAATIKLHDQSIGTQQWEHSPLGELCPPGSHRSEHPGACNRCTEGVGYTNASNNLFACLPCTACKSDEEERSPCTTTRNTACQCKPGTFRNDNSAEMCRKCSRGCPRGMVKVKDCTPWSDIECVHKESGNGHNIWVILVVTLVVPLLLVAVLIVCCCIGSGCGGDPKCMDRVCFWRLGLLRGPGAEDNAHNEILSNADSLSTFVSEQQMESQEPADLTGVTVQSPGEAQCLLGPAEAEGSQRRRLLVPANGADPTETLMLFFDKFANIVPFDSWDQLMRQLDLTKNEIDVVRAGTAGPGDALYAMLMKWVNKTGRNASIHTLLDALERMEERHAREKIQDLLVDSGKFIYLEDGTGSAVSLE", "test": "flow cytometry, HCT-116 cells, n = 2"}, "[3]": {"target": "T2, human DR4 (Death Receptor 4), cell …", "test": "flow cytometry, MDA-MB-231 cells, N = 2"}},
  "data": [
    {"binder": "B1", "values": [
      {"measurement": "EC50", "setting": "[1]", "result": 0.047, "unit": "µg/mL"},
      {"measurement": "EC50", "setting": "[2]", "result": 0.55, "unit": "µg/mL"},
      {"measurement": "EC50", "setting": "[3]", "result": 0.72, "unit": "µg/mL"}
    ]}
  ]
}
